According to publication doi:10.1101/820647:

Experiments:
Assay in all cases: ITC
[1] = target: CDY1 chromodomain (aa 2-63) (human) (UniProt Q9Y6F8)
[2] = target: CDYL1b chromodomain (aa 1-66) (human) (UniProt Q9Y232)
[3] = target: CDYL2 chromodomain (aa 2-62 or 2-64) (human) (UniProt Q8N8U2)
Chain of UniProt Q8N8U2 (Q8N8U2 2-64): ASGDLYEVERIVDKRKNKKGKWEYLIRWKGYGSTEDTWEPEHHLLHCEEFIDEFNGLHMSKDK

Chain of UniProt Q9Y6F8 (Q9Y6F8 2-63): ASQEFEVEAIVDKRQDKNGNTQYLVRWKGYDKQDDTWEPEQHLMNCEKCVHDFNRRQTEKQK

Row | Substance | Kd [1] [µM] | fold more potent than to CBX7 [2] [fold] | fold more potent than to CBX7 [3] [fold]
1 | H3tK27me3 peptide (testis-specific histone H3t) | 32 | – | –
2 | H3K27me3 peptide (canonical histone H3) | 93 | – | –
3 | UNC4850 (peptide) | – | 10 | 10
4 | H3K9me3 peptide | 0.5 | – | –
